The target in test [1] is T1, Recombinant human CTLA-4-his (Sino Biologicals, 11159-H08H) (human, UniProt P16410 36-162).
T1 construct: Bought protein; also called dimer hCTLA-4; not shown: his tag
The test can be described thus: SPR (Biacore T100), antibody captured on anti-human chip, CTLA-4-his in solution. The protocol:
Recombinant human CTLA-4-his (Sino Biologicals, 11159-H08H) was added in a serial 2-fold dilution, starting at a concentration of 500nM. […] The measurement was corrected using the baseline channel and the protein-antibody interaction was measured by the change in surface resonance and quantified with Biacore T100 control software (version 2.0.4).

In test [2] the target is T2, human CTLA-4 expressed on cells (human, UniProt P16410 36-223).
T2 construct: whole, on cells; On stably or transiently transfected HEK293 cells; also called hCTLA-4; HEK293-hCTLA-4 cells
The test can be described thus: flow cytometry on HEK293-hCTLA-4 cells. The protocol: To test the binding of antibodies to CTLA-4 under more physiological conditions, the binding of CTLA-4 antibodies to cell-surface CTLA-4 was tested. […] The surface expression of hCTLA-4 in the obtained cell line was tested using a commercial anti-CTLA-4 antibody and compared to the parent cell line (HEK293 without transfection). […] The anti-CTLA-4 antibodies were incubated in serial dilution concentrations with the HEK293-hCTLA-4 cells for 1 hour on ice. Following a wash step, an anti-human antibody conjugated to ALEXA FLUOR® 647® was added for an additional hour. The cells were washed, and propidium iodide (PI) was added to exclude dead cells. The fluorescent signal was measured using FACS and analyzed. Dead cells were removed based on the PI signal. The population was gated based on forward and side scatter (FSC and SSC) parameters, and doublets were removed. The Median Fluorescent Intensity (MFI) of the appropriate channel was calculated for the live single cells from each group. The MFI was plotted versus antibody concentration in Prism software (V6.01) and kinetic parameters were obtained using a curve fit dose response function with four parameters. […] The lower EC₅₀ values indicate increased binding affinity to cell surface hCTLA-4.
For orientation: In flow cytometry, cells or beads pass a laser one at a time.

Test [3] addresses T2, human CTLA-4 expressed on cells. Kind of test: flow cytometry on HEK293 cells overexpressing human CTLA-4, serial dilution, MFI. The protocol:
HEK293 cells were prepared as described above. […] Binding was measured using FACS.

Where a chain is given by its changes, count along the chain named.

T2 sequence (P16410 36-223): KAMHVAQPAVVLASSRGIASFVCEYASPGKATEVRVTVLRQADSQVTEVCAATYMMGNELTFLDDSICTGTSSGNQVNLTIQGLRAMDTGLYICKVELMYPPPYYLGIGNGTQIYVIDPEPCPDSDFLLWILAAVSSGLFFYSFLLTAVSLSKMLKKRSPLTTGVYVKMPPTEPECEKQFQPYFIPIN
T1 sequence (P16410 36-162 limits assumed): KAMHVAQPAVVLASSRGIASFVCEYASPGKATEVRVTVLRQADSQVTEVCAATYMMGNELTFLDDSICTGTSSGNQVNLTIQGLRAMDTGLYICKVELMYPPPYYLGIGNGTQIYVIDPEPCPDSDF

B1: Ab47h (antibody, V domains shown)
VH: QVQLVESGGGVVQPGRSLRLSCAASGFTFSNYGIHWVRQAPGKGLEWVAAIWYDGNNKYYADSVKDRFTISRDNSKNTLYLQMNSLRVEDTAVYYCARNGVLGAFDIWGQGTMVTVSS
VL: DIQMTQSPSSLSASVGDRVTITCRASQGISNYLAWYQQKPGKVPKLLIYAASTLQSGVPSRFSGSGSGTDFTLTISSLQPEDVATYYCQKYNSSPWTFGQGTKVEIK
As usually defined, the Kd is the free concentration of one partner at which half of the binding sites on the other are occupied at equilibrium, for simple one-to-one binding. Regarding B1, the Kd in test [1] came to 10 nM.

B2: Ab55h-PM1 (antibody, V domains shown)
VH: QVQLQESGPGLVKPSETLSLTCAVSGYSISGDYYWNWIRQPPGKGLEWIGSIYHSGYTYYNPSLKSRVTISVDTSKNQFSLKLSSVTAADTAVYYCARDSGWYVIAFDYWGQGTLVTVSS
VL: EIVMTQSPATLSVSPGERATLSCRASQSVSSNLAWYQEKPGQAPRLLIYGASTRATGIPARFSGSGSGTEFTLTISSLQSEDFAVYYCQQYNNWPPLTFGGGTKVEIK
As usually defined, the EC50 is the concentration needed to bring the measured effect to its halfway point. Regarding B2, the EC50 in test [2] worked out at 0.27 nM.

B3: Ab55h-PM6 (antibody, V domains shown)
VH: B2 VH with N36G, Y109I
VL: B2 VL
Turning to B3, the EC50 in test [2] turned out to be 0.15 nM.

B4: Ab55h-PM3 (antibody, V domains shown)
VH: B2 VH with N36G, G56A
VL: B2 VL
B4: in test [2], the EC50 was 0.42 nM.

B5: Ab55h-PM14 (antibody, V domains shown)
VH: B2 VH with N36G, W102F
VL: B2 VL
B5 displayed a half-maximal effective concentration (EC50) in test [2] of 0.32 nM.

B6: Ab55h-PM27 (antibody, V domains shown)
VH: B2 VH with N36G, W102F, Y109I
VL: B2 VL
With B6, the EC50 in test [2] was 0.2 nM.

B7: Ab55h-PM10 (antibody, V domains shown)
VH: B2 VH with N36G
VL: B2 VL with T53S
B7 showed an EC50 in test [2] of 0.24 nM.

B8: Ab55h-PM24 (antibody, V domains shown)
VH: B2 VH with N36G, S100V, Y109I
VL: B2 VL
As for B8, the EC50 in test [2] stood at 0.2 nM.

B9: Ab55h-PM2 (antibody, V domains shown)
VH: B2 VH with N36G, S55D
VL: B2 VL
With B9, a half-maximal effect in test [2] (EC50) was put at 0.52 nM.

B10: Ab55h-PM23 (antibody, V domains shown)
VH: B2 VH with N36G
VL: B2 VL with L97F
For B10, in test [2], the midpoint of the response, the EC50, lay at 0.22 nM.

B11: Ab55h-PM19 (antibody, V domains shown)
VH: B2 VH with N36G
VL: B2 VL with S30G
With B11, the EC50 in test [2] stood at 0.12 nM.

B12: Ab55h-PM-R6 (antibody, V domains shown)
VH: B2 VH with N36G
VL: B2 VL with N93S
With B12, the binding result in test [3] is reported as “binds”.

B13: Ab55h-PM13 (antibody, V domains shown)
VH: B2 VH with N36G, S100V
VL: B2 VL
Molecule B13 had a 50% effective concentration (EC50) in test [2] of 0.22 nM.

B14: Ab55h-PM28 (antibody, V domains shown)
VH: B2 VH with N36G, A106G, F107Y
VL: B2 VL
Take B14: the EC50 in test [2] turned out to be 0.31 nM.

B15: Ab55h-PM17 (antibody, V domains shown)
VH: B2 VH with N36G
VL: B2 VL with N93V
Molecule B15 had an EC50 in test [2] of 0.31 nM.

B16: Ab55h-PM20 (antibody, V domains shown)
VH: B2 VH with N36G
VL: B2 VL with S30Y
Take B16: in test [2], the EC50 stood at 0.19 nM.

B17: Ab55h-PM26 (antibody, V domains shown)
VH: B2 VH with N36G, S100V, W102F, Y109I
VL: B2 VL
In test [2], B17 registered an EC50 of 0.35 nM.

B18: Ab55h-PM-R9 (antibody, V domains shown)
VH: B2 VH with N36G, Y103S
VL: B2 VL
In the case of B18, the binding result in test [3] is recorded as “binds”.

B19: Ab55h-PM4 (antibody, V domains shown)
VH: B2 VH with N36G, L64V
VL: B2 VL
As for B19, the EC50 in test [2] was 0.39 nM.

B20: Ab55h-PM9 (antibody, V domains shown)
VH: B2 VH with N36G
VL: B2 VL with S52T
On to B20, for which the 50% effective concentration (EC50) in test [2] came to 0.26 nM.

B21: Ab55h-PM25 (antibody, V domains shown)
VH: B2 VH with N36G, S100V, W102F
VL: B2 VL
In turn, B21 registered an EC50 in test [2] of 0.34 nM.

B22: Ab55h-PM18 (antibody, V domains shown)
VH: B2 VH with G31S, N36G
VL: B2 VL
In turn, B22 registered an EC50 in test [2] of 0.21 nM.

B23: Ab55h-PM12 (antibody, V domains shown)
VH: B2 VH with N36G, F107Y
VL: B2 VL
B23 returned an EC50 in test [2] of 0.24 nM.

B24: Ab55h-PM16 (antibody, V domains shown)
VH: B2 VH with N36G
VL: B2 VL with N92A
In turn, B24 came in with an EC50 in test [2] of 0.27 nM.

B25: Ab55h-PM8 (antibody, V domains shown)
VH: B2 VH with N36G
VL: B2 VL with G50A
The molecule B25 showed a concentration for a half-maximal effect (EC50) in test [2] of 0.16 nM.

B26: Ab55h-PM-R5 (antibody, V domains shown)
VH: B2 VH with N36G
VL: B2 VL with N92G
In general, EC50 (read off the curve) refers to the concentration at which the effect is half-maximal. Low readings indicate greater potency, high ones weaker potency. Consider B26, for which, in test [3], the “EC50 (read off the curve)” value was roughly 0.2 nM.

B27: Ab55h-PM7 (antibody, V domains shown)
VH: B2 VH with N36G
VL: B2 VL with V29I
On to B27, for which, in test [2], the midpoint of the response, the EC50, lay at 0.18 nM.

B28: Ab55h-PM5 (antibody, V domains shown)
VH: B2 VH with N36G, D108A
VL: B2 VL
Turning to B28, the midpoint of the response in test [2], the EC50, lay at 0.24 nM.

B29: Ab55h-PM21 (antibody, V domains shown)
VH: B2 VH with N36G
VL: B2 VL with W94S
On to B29, for which a half-maximal effect in test [2] (EC50) was put at 0.22 nM.

B30: Ab55h-PM15 (antibody, V domains shown)
VH: B2 VH with N36G, W102A
VL: B2 VL
For the molecule B30, in test [2], a half-maximal effect (EC50) was put at 0.32 nM.

B31: Ab55h-PM22 (antibody, V domains shown)
VH: B2 VH with N36G
VL: B2 VL with L97I
In turn, B31 came in with an EC50 in test [2] of 0.09 nM.

B32: Ab55h-PM11 (antibody, V domains shown)
VH: B2 VH with N36G, A106G
VL: B2 VL
Consider B32, for which the half-maximal effective concentration (EC50) in test [2] stood at 0.21 nM.

The values above are taken from patent US20210355220A1 (TIKCRO TECHNOLOGIES, published 2021).
